{"source": "patent US20090047262", "key": {"[1]": {"system": "T1, FLAG epitope-tagged CIITA IF1 protein (f:CIITA1)", "T1 sequence": "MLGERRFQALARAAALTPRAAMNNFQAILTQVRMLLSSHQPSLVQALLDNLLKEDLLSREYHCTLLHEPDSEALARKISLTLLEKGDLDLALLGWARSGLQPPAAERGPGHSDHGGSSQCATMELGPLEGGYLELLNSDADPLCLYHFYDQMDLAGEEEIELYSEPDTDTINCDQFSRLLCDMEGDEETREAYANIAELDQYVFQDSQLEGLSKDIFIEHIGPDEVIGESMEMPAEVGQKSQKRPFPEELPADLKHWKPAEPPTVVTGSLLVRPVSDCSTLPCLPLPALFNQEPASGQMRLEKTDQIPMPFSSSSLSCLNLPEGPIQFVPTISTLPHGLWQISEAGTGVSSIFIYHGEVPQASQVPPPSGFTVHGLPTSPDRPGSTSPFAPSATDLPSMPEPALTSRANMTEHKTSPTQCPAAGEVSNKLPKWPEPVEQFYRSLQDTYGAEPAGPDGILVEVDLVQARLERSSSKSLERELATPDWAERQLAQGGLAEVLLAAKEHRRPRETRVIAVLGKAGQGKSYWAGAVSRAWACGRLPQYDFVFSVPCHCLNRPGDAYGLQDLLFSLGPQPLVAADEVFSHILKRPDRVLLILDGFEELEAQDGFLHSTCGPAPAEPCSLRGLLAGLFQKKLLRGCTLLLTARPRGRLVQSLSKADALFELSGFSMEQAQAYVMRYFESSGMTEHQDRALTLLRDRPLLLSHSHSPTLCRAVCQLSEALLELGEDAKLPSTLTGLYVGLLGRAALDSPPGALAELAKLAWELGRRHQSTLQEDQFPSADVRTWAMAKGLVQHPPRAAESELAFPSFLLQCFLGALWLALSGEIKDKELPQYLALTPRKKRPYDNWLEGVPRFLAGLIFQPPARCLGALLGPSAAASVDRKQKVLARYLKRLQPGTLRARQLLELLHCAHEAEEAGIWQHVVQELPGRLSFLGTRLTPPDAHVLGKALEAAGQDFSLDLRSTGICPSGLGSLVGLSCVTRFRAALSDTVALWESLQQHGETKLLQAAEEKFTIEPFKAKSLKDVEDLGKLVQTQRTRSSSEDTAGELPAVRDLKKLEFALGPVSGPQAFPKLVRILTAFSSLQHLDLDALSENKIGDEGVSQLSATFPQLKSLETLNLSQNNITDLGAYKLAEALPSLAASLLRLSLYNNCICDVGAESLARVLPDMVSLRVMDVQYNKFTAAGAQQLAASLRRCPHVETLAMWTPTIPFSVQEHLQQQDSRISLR"}, "[2]": {"system": "mutant f:CIITA1(S357A) protein (FLAG epitope-tagged CIITA isoform 1 with serine 357 changed to alanine)"}}}
{"substance": "Erk1/2 kinase", "values": [{"measurement": "in vitro kinase assay, appearance of the upper (phosphorylated) band", "setting": "[1]", "result": "as indicated by the appearance of the upper band, Erk1/2 phosphorylated f:CIITA1 protein"}, {"measurement": "in vitro kinase assay, appearance of the upper (phosphorylated) band", "setting": "[2]", "result": "Erk1/2 did not phosphorylate the mutant f:CIITA1(S357A) protein, which was confirmed by the absence of the upper band"}]}
